Test results as given in US20230340055A1 (published 2023).

Biological target: T1, Human IL-2 Receptor beta, Fc-Tag (Symansis, New Zealand) (human, UniProt P14784 27-240)
T1 construct: extracellular domain; Bought reagent; also called IL-2Rβ; IL-2Rβ-Fc; not shown: Fc-Tag (captured by anti-human IgG (Fc) antibody)
T1 sequence (looked up): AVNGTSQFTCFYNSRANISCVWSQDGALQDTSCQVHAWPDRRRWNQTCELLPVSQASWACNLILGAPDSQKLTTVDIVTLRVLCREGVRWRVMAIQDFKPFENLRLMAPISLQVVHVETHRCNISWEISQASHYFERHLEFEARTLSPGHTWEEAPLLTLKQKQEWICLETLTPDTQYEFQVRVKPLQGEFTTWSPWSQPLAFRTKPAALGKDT
Test: SPR (Biacore T200), IL-2Rβ-Fc captured on anti-human IgG (Fc) CM5 chip, IL-2 as analyte, multi-cycle kinetics, 1:1 kinetic fit, 25 C
Method: For the determination of binding kinetics to IL-2Rβ the following chip preparation was used: Human IL-2 Receptor beta, Fc-Tag (Symansis, New Zealand) was diluted in HBS-EP running buffer (GE Healthcare, 10 mM HEPES, 150 mM NaCl, 3 mM EDTA, 0.05% Surfactant P20, pH 7.4) to around 0.25 µg/mL and immobilized at a flow rate of 50 µL/min for 60 s to achieve 300 - 330 response units (RU).
(50 µL/min flow rate, 60 s contact time, 300 s dissociation time). Double referenced data (subtracted data from the reference flow cell and the buffer only samples) was analysed via a kinetic fit (1:1 binding model) to determine KD, kₐ and kd. Regeneration after each cycle was performed with 3 M MgCl₂.

Kd: 740 nM
B1: protein 6 (ligand)
chain: APTSSSTKKTQLQLEHLLLDLQMILNGINNYKNPKLTFGNSTKFYMPKKATELKHLQCLEEELKPLEEVLNLAQSKNFHLRPRDLISNINVIVLELKGSETTFMCEYADETATIVEFLNRWITFSQSIISTLT
modifications: glycosylated (same sequence with the N-glycosylation motif FGNST as protein 1f); glycan sites not analysed separately for protein 6
